The target of test [1] is T1, recombinant human PD-L1 protein carrying a hFc label (human, UniProt Q9NZQ7 19-238).
T1 construct: Self-produced; also called hPD-L1 hFc; PD-L1-hFc; not shown: human Fc label
In words: flow cytometry blocking assay (method 2): antibody titrated; binding of recombinant human PD-L1-hFc to PD-1 on CHO-hPD-1 cells is blocked. As to the method:
The 1×FCM buffer was used to dilute the self-produced recombinant human PD-L1 protein carrying hFc, until the concentration reached 2 μg/mL. The 1×FCM buffer was used to resuspend the CHO-hPD-1 cells to the cell density of 2×10E6/mL, and the cells were evenly spread in the 96-well V base plate in 100 μL/well. […] After 250×g was taken to perform centrifugation for 5 min, supernatant was discarded in a sucking manner; after washing was performed once with the 1×FCM buffer, APC-labeled goat anti-mouse Fc fluorescent secondary antibodies (Biolegend) diluted by the 1×FCM buffer (dilution ratio being 1:500) were added in 100 μL/well; and incubation was performed on ice for 30 min. After 250×g was taken to perform centrifugation for 5 min, supernatant was discarded in a sucking manner. After washing was performed for 2 times with the 1×FCM buffer, the cells were resuspended by adding the 1×PBS in 100 μL/well; and the flow cytometer (Beckman, CytoFLEX) was used for detection.

For test [2], the target named is T2, human PD-L1 on IFNγ-stimulated A375 cells (human, UniProt Q9NZQ7 19-290).
T2 construct: whole, on cells; PD-L1 of the A375 cells themselves; also called PD-L1 membrane protein
The experiment in a line: flow cytometry, antibody titration on human IFNγ-stimulated A375 cells, MFI-APC. On the procedure:
An experimental process included the following.
50 ng/mL of the human IFNγ (R&D) was used to stimulate the expression of human PD-L1 on human melanoma cells A375 (Shanghai cell bank) overnight; on the next day, 0.25% pancreatin (Gibco) was used to digest the A375 cells; after washing was performed once with DPBS, live cell density was adjusted to 2E6/mL; and the mixture was added into the 96-well V base plate in 100 μL/well. […] The mixture was added into the cells in 100 μL/well; and incubation was performed on ice for 30 min in a standing manner, then 250×g was taken to perform centrifugation for 5 min, and supernatant was discarded in a sucking manner. After washing was performed for 2 times with the 1×FCM buffer, iFluor™633GAM fluorescent secondary antibodies (ATT bioquest) diluted by the 1×FCM buffer (dilution ratio being 1:400) were added in 100 μL/well; and incubation was performed on ice for 30 min. After 250×g was taken to perform centrifugation for 5 min, supernatant was discarded in a sucking manner. After washing was performed for 2 times with the 1×FCM buffer, the cells were resuspended by adding the 1×PBS in 100 μL/well; and the flow cytometer (Beckman, CytoFLEX) was used for detection.
Background: Flow cytometry measures light scatter and fluorescence of single cells or particles in a stream.

Test [3] deals with T3, human PD-L1 full-length protein on CHO-hPD-L1 stable cells (human, UniProt Q9NZQ7 19-290).
T3 construct: also called membrane protein PD-L1
The experiment in a line: flow cytometry blocking assay: antibody titrated on CHO-hPD-L1 cells; blocked ligand recombinant human CD80-hFc.

The target of test [4] is T4, human PD-L2 protein (Acrobiosystem), hPD-L2 hFc (human, UniProt Q9BQ51 20-219, limits assumed).
T4 construct: Bought; also called B7-DC; not shown: human Fc
T4 sequence (looked up): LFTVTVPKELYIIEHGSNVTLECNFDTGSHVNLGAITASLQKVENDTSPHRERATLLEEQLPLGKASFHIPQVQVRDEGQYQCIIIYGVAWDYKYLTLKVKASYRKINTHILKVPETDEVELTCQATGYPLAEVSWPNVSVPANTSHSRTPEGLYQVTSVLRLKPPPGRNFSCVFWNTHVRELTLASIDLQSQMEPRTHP
The experiment in a line: ELISA on coated hPD-L2 hFc. As to the method: (§1) Supernatant was discarded; a blocking solution (1×PBS+1% BSA) was added in 200 μL/well; and blocking was performed for 1 h at 37° C. […] Washing was performed for 3 times with the 1×PBS. HRP-labeled goat anti-mouse IgG (sigma A0168-1ML) was added in 100 μL/well; incubation was performed for 30 min at 37° C. in a standing manner; and after washing was performed for 3 times with the 1×PBS, a color reaction was performed.
A general note: ELISA stands for enzyme-linked immunosorbent assay.

Test [5] addresses T5, human PD-L1 extracellular domain recombinant protein hPD-L1-his (human, UniProt Q9NZQ7 19-238).
T5 construct: extracellular domain; Home-made; also called human PD-L1 recombinant protein; not shown: his label
In words: BLI (ForteBIO QKe), hPD-L1-his captured on an anti-Penta-HIS sensor, antibody in solution. As to the method:
An experimental method included the following.
An equilibration buffer (1×PBS+0.02% Tween20) was used to dilute a home-made human PD-L1 extracellular domain recombinant protein hPD-L1-his carrying a his label, until a final concentration reached 5 μg/mL. […] The whole reaction was undergone at 25° C. and 1000 rpm.
A general note: In BLI a coated tip is dipped into the sample, and binding shifts an interference pattern.

In test [6] the target is T3, human PD-L1 full-length protein on …. In words: flow cytometry blocking assay (method 1): antibody titrated on CHO-hPD-L1 cells; blocked ligand recombinant human PD-1-hFc. As to the method: […] The 1×FCM buffer was used to resuspend the CHO-hPD-L1 cells to the cell density of 2×10E6/mL, and the cells were evenly spread in the 96-well V base plate in 100 μL/well. […] After 250×g was taken to perform centrifugation for 5 min, supernatant was discarded in a sucking manner. After washing was performed for 2 times with the 1×FCM buffer, the cells were resuspended by adding the 1×PBS in 100 μL/well; and the flow cytometer (Beckman, CytoFLEX) was used for detection.

For test [7], the target named is T6, human B7-H3 protein (Acrobiosystem), hB7-H3 hFc (human, UniProt Q5ZPR3-2 29-245, limits assumed).
T6 construct: Bought; not shown: human Fc
T6 sequence (looked up): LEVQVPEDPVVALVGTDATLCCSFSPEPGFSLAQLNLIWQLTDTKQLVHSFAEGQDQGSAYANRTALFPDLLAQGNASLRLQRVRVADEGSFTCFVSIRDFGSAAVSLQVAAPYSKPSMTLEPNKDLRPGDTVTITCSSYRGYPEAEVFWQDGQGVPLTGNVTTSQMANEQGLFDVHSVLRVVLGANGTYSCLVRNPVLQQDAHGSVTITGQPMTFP
In words: ELISA on coated hB7-H3 hFc. As to the method:
as §1

In test [8] the target is T7, human CD28 protein (Acrobiosystem), hCD28 hFc (human, UniProt P10747 19-152).
T7 construct: Bought; not shown: human Fc
The experiment in a line: ELISA on coated hCD28 hFc. As to the method:
as §1

The target of test [9] is T8, human CTLA-4 protein (Acrobiosystem), hCTLA-4 hFc (human, UniProt P16410 37-162, limits assumed).
T8 construct: Bought; not shown: human Fc
In words: ELISA on coated hCTLA-4 hFc. On the procedure: as §1

One may read the IC50 as the concentration that gives 50% inhibition. What is called EC50 is the concentration that produces a half-maximal response. A higher EC50 goes with a less potent agent. By Kd is commonly meant the equilibrium constant for the complex coming apart.

T3 sequence (Q9NZQ7 19-290 limits assumed): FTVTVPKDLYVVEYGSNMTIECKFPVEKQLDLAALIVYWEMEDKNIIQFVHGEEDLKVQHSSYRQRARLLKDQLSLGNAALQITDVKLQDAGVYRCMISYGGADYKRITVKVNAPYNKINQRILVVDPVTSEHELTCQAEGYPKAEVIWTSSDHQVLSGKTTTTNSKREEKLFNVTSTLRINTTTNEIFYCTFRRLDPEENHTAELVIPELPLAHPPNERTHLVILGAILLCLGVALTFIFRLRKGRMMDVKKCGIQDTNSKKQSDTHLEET
T5 sequence (Q9NZQ7 19-238): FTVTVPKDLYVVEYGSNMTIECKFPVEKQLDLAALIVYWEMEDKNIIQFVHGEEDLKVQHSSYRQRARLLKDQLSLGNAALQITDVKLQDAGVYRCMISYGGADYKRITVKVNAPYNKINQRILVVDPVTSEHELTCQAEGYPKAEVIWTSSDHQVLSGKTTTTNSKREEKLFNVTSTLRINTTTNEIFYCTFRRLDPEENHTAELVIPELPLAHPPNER
T1 sequence (Q9NZQ7 19-238): as above
T2 sequence (Q9NZQ7 19-290): as the sequence (Q9NZQ7 19-290 limits assumed) above
T8 sequence (P16410 37-162 limits assumed): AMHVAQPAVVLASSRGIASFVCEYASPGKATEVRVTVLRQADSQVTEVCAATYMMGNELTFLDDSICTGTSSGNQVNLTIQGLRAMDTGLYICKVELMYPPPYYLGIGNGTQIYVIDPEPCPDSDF

B1: F016-21 (antibody, V domains shown)
VH: EVQLQQSGPELVKPGASVKMSCKASGYTFTDYVMHWVKQKPGQGLEWIGYINPYNDGTKFNEKFKGKATLTSDKSSSTAYMELSSLTSEDSAVYYCAKQTLDYWGQGTSVTVSS
VL: DIVLTQSPASLAVSLGQRATISCRASESVEYFGTTLMQWYQQRPGQPPKLLIYAASNVESGVPARFSGSGSGTDFSLNIHPVEEDDIAMYFCQQSRKVPYTFGGGTKLEIKR
notes: Mouse hybridoma monoclonal antibody purified from clone supernatant; also called anti-human PD-L1 antibody F016-21
As to B1, the IC50 was 1.18 nM in test [1], 4.11 nM in test [3] and 5.2 nM in [6]. The molecule further gave an EC50 in [2] of 0.151 nM. Also, the binding result in test [4], in test [7], in [8] and in [9] was “no binding (tested: 10 µg/mL)” in each case. In test [5], the Kd is 0.0566 nM.

The values are drawn from patent US20240301069A1 (GUANGDONG FAPON BIOPHARMA, published 2024).
